# Substitutions are numbered along the chain they refer to.
# T1: TldD/E (purified TldD and TldE combined) (Escherichia coli, UniProt P0AGG8)
# T1 construct: with Metalloprotease PmbA
# T1 sequence (P0AGG8 1-481): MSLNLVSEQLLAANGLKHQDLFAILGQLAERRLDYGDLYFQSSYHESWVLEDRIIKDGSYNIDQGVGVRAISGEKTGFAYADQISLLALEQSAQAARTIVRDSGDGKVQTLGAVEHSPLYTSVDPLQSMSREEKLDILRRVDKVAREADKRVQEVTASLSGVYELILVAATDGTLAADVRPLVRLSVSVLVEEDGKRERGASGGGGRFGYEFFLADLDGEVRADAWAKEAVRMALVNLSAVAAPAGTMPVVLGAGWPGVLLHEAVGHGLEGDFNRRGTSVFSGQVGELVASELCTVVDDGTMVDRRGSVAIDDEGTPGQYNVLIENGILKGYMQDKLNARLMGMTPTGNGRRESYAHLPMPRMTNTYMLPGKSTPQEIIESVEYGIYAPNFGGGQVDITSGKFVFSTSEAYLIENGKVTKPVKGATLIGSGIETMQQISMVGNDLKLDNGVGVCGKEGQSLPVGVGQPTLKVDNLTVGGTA
# T1 sequence (P0AFK0 1-450 partner): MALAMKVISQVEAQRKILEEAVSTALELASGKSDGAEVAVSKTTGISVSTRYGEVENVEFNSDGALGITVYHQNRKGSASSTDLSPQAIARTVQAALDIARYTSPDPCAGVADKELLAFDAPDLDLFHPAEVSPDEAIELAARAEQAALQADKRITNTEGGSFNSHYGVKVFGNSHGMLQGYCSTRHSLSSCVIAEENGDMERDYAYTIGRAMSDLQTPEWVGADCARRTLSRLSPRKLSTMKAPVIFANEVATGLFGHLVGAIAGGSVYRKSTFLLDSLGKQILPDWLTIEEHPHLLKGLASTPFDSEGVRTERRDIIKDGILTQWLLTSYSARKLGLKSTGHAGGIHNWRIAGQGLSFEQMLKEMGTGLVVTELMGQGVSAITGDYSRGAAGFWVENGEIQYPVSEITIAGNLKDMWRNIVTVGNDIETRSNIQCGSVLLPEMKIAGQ
# T2: E. coli TldD Glu263Ala mutant (subunit of the TldD^E263A/E complex) (E. coli, UniProt P0AGG8 1-481, E263A | Gly to Asp at position 401)
# T2 construct: TldD of E. coli MG1655 with E263A; Gly401 to Asp was introduced into all the models; The methods say only that the mutants were made by overlap extension PCR and 'cloned and produced as described above'; also called Glu263Ala TldD mutant; source: E. coli, mutant protein complex with TldE
# T2 sequence (looked up): T1 sequence (P0AGG8 1-481) with E263A, G401D
# T3: E. coli TldD His262Ala mutant (subunit of the TldD^H262A/E complex) (E. coli, UniProt P0AGG8 1-481, H262A | Gly to Asp at position 401)
# T3 construct: TldD of E. coli MG1655 with H262A; Gly401 to Asp was introduced into all the models; source: E. coli, mutant protein complex with TldE
# T3 sequence (looked up): T1 sequence (P0AGG8 1-481) with H262A, G401D
# T4: His-tagged E. coli TldD co-expressed with untagged TldE (pColA-Duet, MCS I) (E. coli, UniProt P0AGG8 1-481, Gly to Asp at position 401)
# T4 construct: TldD of E. coli MG1655, cloned into MCS I of pColA-Duet (BamHI/HindIII); residues 2-481 seen in the crystals; Zn in the active site (grown with 50 uM ZnCl2 for crystals); also called TldD-His; His-tagged TldD; source: E. coli BL21 (DE3) Gold, co-overproduced with TldE
# T4 sequence (looked up): T1 sequence (P0AGG8 1-481) with G401D
# B1: untagged E. coli TldE co-expressed with His-tagged TldD (pColA-Duet, MCS II) (natural protein, UniProt P0AFK0 1-450, looked up)
# chain: T1 sequence (P0AFK0 1-450 partner)
# notes: TldE (PmbA) of E. coli MG1655, cloned into the second MCS of pColA-Duet (NdeI/XhoI), untagged; residues 6-450 seen in the crystals; also called PmbA; TldE subunit; source: E. coli BL21 (DE3) Gold, co-overproduced with His-tagged TldD
# B2: N-terminally 6xHis-tagged E. coli TldE (pET28b, purified separately) (natural protein, UniProt P0AFK0 1-450, looked up)
# chain: T1 sequence (P0AFK0 1-450 partner)
# notes: 50.5 kDa with the tag; also called His-TldE; PmbA; source: E. coli BL21 (DE3) Gold, purified (Ni-NTA)
# Tests used:
# [1] = target: N-terminally 6xHis-tagged E. coli TldD (pET28b, purified separately) (E. coli) (UniProt P0AGG8); assay: AUC; sedimentation equilibrium, 0.2 mg/ml protein in 50 mM Tris-HCl pH 7.5, 100 mM NaCl, 10000 rpm, 20 C, single species model
# [2] = target: T1, TldD/E (purified TldD and TldE combined); assay: inhibition of angiotensin II hydrolysis; assay type: biochemical; conditions: substrate angiotensin II
# [3] = target: T2, E. coli TldD Glu263Ala mutant (subunit …); assay: crystal structure; X-ray structures of the co-purified TldD/E heterodimer (wild type and TldD mutants), two heterodimers in the asymmetric unit; condition 1 (phosphate, PEG 3350) or condition 2 (PEG 1500, MMT pH 8.0), 20 C; conditions: both partners purified
# [4] = target: T3, E. coli TldD His262Ala mutant (subunit …); assay: as above; conditions: both partners purified
# [5] = target: T4, His-tagged E. coli TldD co-expressed …; assay: pull-down; Ni affinity chromatography of extracts of E. coli co-overproducing His-tagged TldD and untagged TldE; wash ~20 CV with 1 M NaCl, 50 mM imidazole, 0.1% Triton X-100; elution with 250 mM imidazole; conditions: partners not purified
# [6] = target: the molecule itself; assay: AUC; sedimentation equilibrium, 0.2 mg/ml protein in 50 mM Tris-HCl pH 7.5, 100 mM NaCl, 10000 rpm, 20 C, single species model
molecule,measurement,setting,value
"N-terminally 6xHis-tagged E. coli TldD (pET28b, purified separately) (from UniProt P0AGG8 1-481) (natural protein)",stoichiometry N,[1],2
CCCCC[C@H](CC(=O)NO)C(=O)N[C@H](C(=O)N1CCC[C@H]1CO)C(C)C [Actinonin],inhibition of angiotensin II hydrolysis,[2],actinonin (deformylase inhibitor) efficiently prevented angiotensin II hydrolysis by TldD/E
B1,binding result,[3],binds
same,binding result,[4],binds
same,binding result,[5],binds
B2,stoichiometry N,[6],2
